± gives the half width of the 95% confidence interval.
What was measured:
[1] = folding stability dG unfold (combined trypsin and chymotrypsin); higher = more stable
How it was run: (§1)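 Unfolding free energy was derived, per protease or combined, against a sequence-predicted unfolded-state K50 and a shared folded-state K50, starting from K50 inferred by Bayesian fitting of sequencing counts. Digestion with trypsin and chymotrypsin was carried out on designed mini-proteins under 80 residues without cysteine in a PA-tagged cDNA display construct. Only designs with AlphaFold2 dimer inter-PAE above 15 were kept.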

[2] = folding stability dG unfold from trypsin proteolysis; higher = more stable
How it was run: as §1

[3] = folding stability dG unfold from chymotrypsin proteolysis; higher = more stable
How it was run: as §1

SAGGTAEELAKNIADNLQKAGWIKKVEVEVHPSPDGNIMVRIEIKIEPPPPPPPPKVEYDENGKPRYDSAGG [r13_957_TrROS]
folding stability dG unfold [1]: 0.924 ± 0.39 kcal/mol
folding stability dG unfold [2]: 1.04 ± 0.12 kcal/mol
folding stability dG unfold [3]: 0.662 ± 0.23 kcal/mol

SAGGSWIEFMIMVPYPDGKPLEDLPPEEVVDIAKTFMSDFGYKIKDINVQYNPDDGYVHVPIEIKPSAGGSA [r2_237_TrROS]
folding stability dG unfold [1]: 1.21 ± 0.2 kcal/mol
folding stability dG unfold [2]: 1.26 ± 0.074 kcal/mol
folding stability dG unfold [3]: 1.09 ± 0.2 kcal/mol

SAMVIEIEIPSEELLKKLEELLPPGARIKKVEIVKENGKVKIIVELEPGMSEEEKERIKKKIEELLKEESAG [r14_306_TrROS_Hall]
folding stability dG unfold [1]: > 6 kcal/mol
folding stability dG unfold [2]: 4.92 ± 0.46 kcal/mol
folding stability dG unfold [3]: 3.59 ± 0.4 kcal/mol

SAMILPKTVPKTITYPGSEEEARAVAEAEAARLKAQGNVTVDITFVKKSPEGGYTIEITITDYAPPELLSAG [r14_413_JUSTAS]
folding stability dG unfold [1]: 0.861 ± 0.23 kcal/mol
folding stability dG unfold [2]: 0.77 ± 0.12 kcal/mol
folding stability dG unfold [3]: 0.933 ± 0.28 kcal/mol

SAGGSAGGSAGTLTFTFDGVTVEVRLVDGYLVIRVTTEVEVNGKKYKVTLELVIKLPEGLSAGGSAGGSAGG [r11_879_TrROS_Hall]
folding stability dG unfold [1]: 5.49 ± 0.28 kcal/mol
folding stability dG unfold [2]: 4.5 ± 0.41 kcal/mol
folding stability dG unfold [3]: 5.4 ± 0.28 kcal/mol

SAGGWTIEEIIDAIREAKENGPGQKVEIEIPFGGGPVRVSIEVPPDGRVKIEIQYDNKPIWEIEIPVSAGGS [r16_611_TrROS]
folding stability dG unfold [1]: 2.02 ± 0.15 kcal/mol
folding stability dG unfold [2]: 1.98 ± 0.14 kcal/mol
folding stability dG unfold [3]: 2.12 ± 0.081 kcal/mol

SAGGSAGGSAGGKLTIVIEGMSEEEVKALAEALRKAGLEIEVTVVPVEVKEPELPEEEKSAGGSAGGSAGGS [r10_361_TrROS_Hall]
folding stability dG unfold [1]: 2.04 ± 0.12 kcal/mol
folding stability dG unfold [2]: 1.57 ± 0.081 kcal/mol
folding stability dG unfold [3]: 2.29 ± 0.053 kcal/mol

SAGGSAGGSAGGSMTLVIKNGIGYTVIKIKVEYDEETGEFSFELEIETKPVPPNYPVPASAGGSAGGSAGGS [r4_215_TrMRF]
folding stability dG unfold [1]: 3.99 ± 0.59 kcal/mol
folding stability dG unfold [2]: 3.02 ± 0.33 kcal/mol
folding stability dG unfold [3]: 4.39 ± 0.33 kcal/mol

SAGGSAGGMKELAEKLGWEYEEKEEKLPSGKKILIATFTSPDGSKVIITFDPSTNKIISEEVFESAGGSAGG [r6_982_JUSTAS]
folding stability dG unfold [1]: 4.03 ± 0.25 kcal/mol
folding stability dG unfold [2]: 4.28 ± 0.4 kcal/mol
folding stability dG unfold [3]: 3.71 ± 0.23 kcal/mol

SAGGSAGGSAGGMKTIVVPKDELEKLKEELEKKGKKVETSEDGTWTVDGKPVKVVVEPGSAGGSAGGSAGGS [r10_930_JUSTAS]
folding stability dG unfold [1]: 0.594 ± 0.1 kcal/mol
folding stability dG unfold [2]: 0.352 ± 0.062 kcal/mol
folding stability dG unfold [3]: 0.731 ± 0.032 kcal/mol

SAGSPIEELAKKIAEPKYKEEKKPNLTIKVEIEVTVTTSVPVKLPNGEPAYKTTEVKIKVKLTINIPEGSAG [r5_297_JUSTAS]
folding stability dG unfold [1]: 3.39 ± 0.46 kcal/mol
folding stability dG unfold [2]: 3 ± 0.16 kcal/mol
folding stability dG unfold [3]: 3.63 ± 0.48 kcal/mol

SAGKMKIIEVKPGEEIKITIPEEGKKVKIYVYNKNGEKVEEKEVEIKPGQTLTFKIPKEDAKVIIEIEDSAG [r5_797_TrROS_Hall]
folding stability dG unfold [1]: 2.82 ± 0.18 kcal/mol
folding stability dG unfold [2]: 1.75 ± 0.062 kcal/mol
folding stability dG unfold [3]: 3.11 ± 0.039 kcal/mol

SAGGSAGGSDPVPIVITYPDGSTSTTLEPDKIYITYPSKGLKYVVPIDLSTNKISFSLESSLPSAGGSAGGS [r12_539_JUSTAS]
folding stability dG unfold [1]: -0.254 ± 0.08 kcal/mol
folding stability dG unfold [2]: -0.699 ± 0.12 kcal/mol
folding stability dG unfold [3]: -0.0759 ± 0.11 kcal/mol

SAGGSAGGSAGMTIKVYDPKTGEKILEIEIDPSLTPEQLKALADELRKKLPPGARIEIVPSAGGSAGGSAGG [r11_1081_TrROS_Hall]
folding stability dG unfold [1]: 4.38 ± 0.13 kcal/mol
folding stability dG unfold [2]: 4.56 ± 0.2 kcal/mol
folding stability dG unfold [3]: 3.72 ± 0.088 kcal/mol

SAGGSAGGSSEKAEELLERLRELLPPEEIRRVEVRDGKIVIEVSPEAARRLAEELGLDEIEIVSAGGSAGGS [r12_748_TrROS_Hall]
folding stability dG unfold [1]: 2.49 ± 0.074 kcal/mol
folding stability dG unfold [2]: 2.53 ± 0.09 kcal/mol
folding stability dG unfold [3]: 2.22 ± 0.071 kcal/mol

SAGMPEPRVFEIPNEGSESDLRDAVRELAEELRPSGREVRLVVEVGGRPREYRLEEVDRFPPDFRVVLGSAG [r5_626_TrMRF]
folding stability dG unfold [1]: 0.125 ± 0.12 kcal/mol
folding stability dG unfold [2]: -0.362 ± 0.25 kcal/mol
folding stability dG unfold [3]: 0.324 ± 0.16 kcal/mol

MEITTTPYTDPNSETTYWLITATLPDGRRITIVITKPAGGPWTVEVYAPDGTRISSKTYSSEEEAIEEALTS [r1_478_JUSTAS]
folding stability dG unfold [1]: 3.25 ± 0.052 kcal/mol
folding stability dG unfold [2]: 3.3 ± 0.051 kcal/mol
folding stability dG unfold [3]: 3.2 ± 0.036 kcal/mol

Source: the supplement of paper PMC12764529
